The text below walks through data of patent publication US20230365647A1 (published 2023).

This test deals with T1, Mannose receptor C type 1 on human monocyte-derived dendritic cells (Homo sapiens, UniProt P22897 19-1456).
T1 construct: also called MRC-1
T1 sequence: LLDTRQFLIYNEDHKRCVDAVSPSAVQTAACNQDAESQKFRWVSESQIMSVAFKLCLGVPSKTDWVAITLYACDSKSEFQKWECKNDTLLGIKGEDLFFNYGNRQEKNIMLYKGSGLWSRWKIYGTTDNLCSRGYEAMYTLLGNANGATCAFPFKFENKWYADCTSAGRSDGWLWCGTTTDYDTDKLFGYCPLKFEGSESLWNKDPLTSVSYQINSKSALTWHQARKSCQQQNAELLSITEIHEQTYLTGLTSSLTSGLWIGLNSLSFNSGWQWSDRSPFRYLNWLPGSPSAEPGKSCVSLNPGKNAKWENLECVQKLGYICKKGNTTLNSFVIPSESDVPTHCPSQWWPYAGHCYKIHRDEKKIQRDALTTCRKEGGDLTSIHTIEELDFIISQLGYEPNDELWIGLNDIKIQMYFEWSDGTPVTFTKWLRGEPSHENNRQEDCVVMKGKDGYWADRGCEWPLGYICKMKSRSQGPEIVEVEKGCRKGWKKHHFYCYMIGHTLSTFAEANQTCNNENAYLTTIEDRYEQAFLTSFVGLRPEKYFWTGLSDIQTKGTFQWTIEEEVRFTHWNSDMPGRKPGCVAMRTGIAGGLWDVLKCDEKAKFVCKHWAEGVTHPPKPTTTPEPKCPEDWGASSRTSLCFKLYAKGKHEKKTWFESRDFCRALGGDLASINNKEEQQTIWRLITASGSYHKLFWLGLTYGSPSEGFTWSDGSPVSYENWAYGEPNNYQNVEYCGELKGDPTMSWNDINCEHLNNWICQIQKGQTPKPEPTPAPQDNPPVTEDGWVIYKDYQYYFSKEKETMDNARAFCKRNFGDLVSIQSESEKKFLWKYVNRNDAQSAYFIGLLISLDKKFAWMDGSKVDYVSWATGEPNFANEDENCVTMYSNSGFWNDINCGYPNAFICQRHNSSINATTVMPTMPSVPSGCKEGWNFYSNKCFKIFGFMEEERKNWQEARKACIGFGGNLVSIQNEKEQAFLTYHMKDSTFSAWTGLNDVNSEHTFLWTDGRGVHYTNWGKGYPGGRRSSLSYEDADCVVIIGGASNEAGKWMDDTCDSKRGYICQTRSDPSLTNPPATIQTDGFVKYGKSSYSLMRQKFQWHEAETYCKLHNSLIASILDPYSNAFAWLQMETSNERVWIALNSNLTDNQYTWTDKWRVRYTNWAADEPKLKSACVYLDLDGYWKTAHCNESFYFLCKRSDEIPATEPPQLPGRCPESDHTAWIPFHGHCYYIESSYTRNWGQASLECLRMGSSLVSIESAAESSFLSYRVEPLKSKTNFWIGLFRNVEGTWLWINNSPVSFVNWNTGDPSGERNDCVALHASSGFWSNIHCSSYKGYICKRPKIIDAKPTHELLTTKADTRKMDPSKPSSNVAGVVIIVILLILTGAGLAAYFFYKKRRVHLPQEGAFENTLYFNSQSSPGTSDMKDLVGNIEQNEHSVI
The test can be described thus: immunofluorescence co-localization in human DCs.

B1: LLO (W489F) toxoid (other)
chain: KDASAFNKENSISSMAPPASPPASPKTPIEKKHADEIDKYIQGLDYNKNNVLVYHGDAVTNVPPRKGYKDGNEYIVVEKKKKSINQNNADIQVVNAISSLTYPGALVKANSELVENQPDVLPVKRDSLTLSIDLPGMTNQDNKIVVKNATKSNVNNAVNTLVERWNEKYAQAYPNVSAKIDYDDEMAYSESQLIAKFGTAFKAVNNSLNVNFGAISEGKMQEEVISFKQIYYNVNVNEPTRPSRFFGKAVTKEQLQALGVNAENPPAYISSVAYGRQVYLKLSTNSHSTKVKAAFDAAVSGKSVSGDVELTNIIKNSSFKAVIYGGSAKDEVQIIDGNLGDLRDILKKGATFNRETPGVPIAYTTNFLKDNELAVIKNNSEYIETTSKAYTDGKINIDHSGGYVAQFNISWDEINYDPEGNEIVQHKNWSENNKSKLAHFTSSIYLPGNARNINVYAKECTGLAFEWWRTVIDDRNLPLVKNRNISIWGTTLYPKYSNSVDNPIE
As for B1, the binding result was “no binding (tested: 0.2 µg/ml)”.

B2: Pneumolysin (purified recombinant) (other)
chain: ANKAVNDFILAMNYDKKKLLTHQGESIENRFIKEGNQLPDEFVVIERKKRSLSTNTSDISVTATNDSRLYPGALLVVDETLLENNPTLLAVDRAPMTYSIDLPGLASSDSFLQVEDPSNSSVRGAVNDLLAKWHQDYGQVNNVPARMQYEKITAHSMEQLKVKFGSDFEKTGNSLDIDFNSVHSGEKQIQIVNFKQIYYTVSVDAVKNPGDVFQDTVTVEDLKQRGISAERPLVYISSVAYGRQVYLKLETTSKSDEVEAAFEALIKGVKVAPQTEWKQILDNTEVKAVILGGDPSSGARVVTGKVDMVEDLIQEGSRFTADHPGLPISYTTSFLRDNVVATFQNSTDYVETKVTAYRNGDLLLDHSGAYVAQYYITWNELSYDHQGKEVLTPKAWDRNGQDLTAHFTTSIPLKGNVRNLSVKIRECTGLAWEWWRTVYEKTDLPLVRKRTISIWGTTLYPQVEDKVEND
notes: also called PLY; Ply
Consider B2, for which the binding result is “binds”.
